Measured values taken from patent publication US6566113B1, “Polypeptide having cellobiohydrolase activity” (Takara Shuzo Co., Ltd., priority 1998, dated 2003).
Blank lines part the entries; values can stand above or below the molecule they belong to.

Key:
[1] = molecular target: polypeptide of the present invention (cellobiohydrolase, open reading frame PH1171) (Pyrococcus horikoshii, UniProt O58925); assay: Inhibition of pNPC-degrading activity by glucose, cellobiose and various reagents; assay type: biochemical, Pyrococcus horikoshii OT3; conditions: for inhibition of pNPC-degrading activity by dithiothreitol: up to 10 mM
[2] = molecular target: Cellobiohydrolase from Thermotoga sp. FjSS-B.1; conditions: cellobiohydrolase of Thermotoga sp. FjSS-B.1; read-out: inhibition constant (Ki) for cellobiose; cited from earlier work
[3] = CMC-degrading activity (reducing ends, Park and Johnson method); assay type: biochemical
Experimental: When cellulose is degraded using a cellulose hydrolase such as endoglucanase or cellobiohydrolase, reducing ends of glucose residues are newly generated. Then, increase in the amount of reducing end in a unit reaction time was measured according to the Park and Johnson method using carboxymethylcellulose (CMC) as a substrate in order to confirm whether or not a polypeptide having an activity of hydrolyzing cellulose which newly generates reducing ends of glucose residues existed in the Escherichia coli extract.
A CMC solution was prepared by dissolving CMC (Sigma) in 100 mM sodium citrate buffer (pH 5.0) at a concentration of 1%. […] Absorbance at 690 nm was then measured. The amount of reducing end was determined as the amount of corresponding glucose based on a calibration curve prepared using glucose at a known concentration. […]
50 μl of a 50-fold dilution of the polypeptide solution of the present invention with water, 25 μl of a 2% CMC aqueous solution and 25 μl of one of the above-mentioned buffers were mixed together. […] The amount of reducing sugar contained in a supernatant obtained by centrifuging the reaction mixture was measured according to the Park and Johnson method, and the CMC-degrading activity was calculated. […]

[4] = pH and heat stability: remaining CMC-degrading / cellobiohydrolase activity after heating; assay type: biochemical
Experimental: 25 μl of the polypeptide solution of the present invention and 25 μl of one of the buffers prepared in Example 3-(1) were mixed together. The mixture was heated at 95° C. for 10 minutes. 50 μl of 1% CMC solution in 0.1 M MES-NaOH buffer (pH 6.0) was added to 50 μl of a 50-fold dilution of the heated mixture with water. The mixture was reacted at 98° C. for 20 minutes. The amount of reducing sugar contained in a supernatant obtained by centrifuging the reaction mixture was measured according to the Park and Johnson method, and the CMC-degrading activity was calculated.
CMC was dissolved in 0.1 M MES-NaOH buffer (pH 6.0) to prepare a 1% CMC solution (pH 6.0). 50 μl of the MES buffer was added to 50 μl of the polypeptide solution of the present invention. The mixture was heated at 95° C. for 0, 1, 5 or 24 hours. 50 μl of the 1% CMC solution was added to 50 μl of a 50-, 200- or 500-fold dilution of a supernatant obtained by centrifuging the heated mixture with the MES buffer. The mixture was reacted at 98° C. for 20 minutes. The amount of reducing sugar contained in the reaction mixture was measured according to the Park and Johnson method to determine the CMC-degrading activity.

[5] = pNPC-degrading activity on synthetic substrate; assay type: biochemical; conditions: 5 mM pNPC, 98° C., 20 minutes, pH 6.0
Experimental: 50 μl of 10 mM pNPC solution in 0.1 M MES-NaOH buffer (pH 6.0) was added to 50 μl of the polypeptide solution of the present invention or a 2-, 5- 10- or 20-fold dilution thereof with 0.1 M MES-NaOH buffer (pH 6.0). The mixture was reacted at 98° C. for 20 minutes. Absorbance at 405 nm of a supernatant obtained by centrifugation was measured to determine the pNPC-degrading activity based on the amount of released p-nitrophenol (pNP).

[6] = 4-MUC-degrading activity, specific activity of purified polypeptide; assay type: biochemical; conditions: 98° C., pH 6.0, 20 minutes
Experimental: A supernatant obtained by centrifuging the heated supernatant was subjected to anion exchange chromatography using HiTrap Q column (Pharmacia). The sample was applied to two 5 ml HiTrap Q columns connected in series. Elution was carried out using a linear gradient in 20 minutes from 50 mM MES-NaOH buffer (pH 6.0) to the same buffer containing 200 mM NaCl at a flow rate of 2 ml/minute. 50 μl of 6 mM 4-MUC solution in 100 mM MES-NaOH buffer (pH 6.0) was added to 50 μl of one of the serial dilutions of the respective fractions. The mixture was reacted at 98° C. for 20 minutes. Fluorescence value was measured at an excitation wavelength of 355 nm and an emission wavelength of 460 nm. The 4-MUC-degrading activity was calculated based on the amount of released 4-MU.
2 ml of the active fraction from the hydrophobic column chromatography was desalted by ultrafiltration, lyophilized and then hydrolyzed in the presence of gas-phase HCl at 135° C. for 3 hours. The hydrolysate was dissolved in 100 μl of water. […] The polypeptide corresponding to 60 mU of the 4-MUC-degrading activity was subjected to the amino acid analysis. Thus, the specific activity was determined to be 17.0 U/mg.

[7] = Identification of hydrolysis products by silica gel thin-layer chromatography; assay type: biochemical
Experimental: The activity of hydrolyzing cellulose of the expressed polypeptide was identified as follows. Specifically, the expressed polypeptide solution was allowed to act on various substrates. Products were then identified on thin-layer chromatography.
75 μl of the expressed polypeptide solution was added to 75 μl of the phosphoric acid-swollen cellulose. The mixture was reacted at 98° C. for 8 hours. 60 μl of acetonitrile was added to the equal volume of the reaction mixture and mixed. A supernatant obtained by centrifugation was evaporated under reduced pressure to dryness. The residue was dissolved in 10 μl of water. 2 μl of the solution was subjected to silica gel thin-layer chromatography. Two rounds of development were carried out using silica gel 60F254 (Merck) as a thin-layer plate and ethanol:butanol:water=5:5:1 as a solvent for development. Orcinol-sulfuric acid reagent was sprayed onto the thin-layer plate after development and the plate was heated using a hot plate to observe the spots. […]
Reactions were carried out as described above using oligosaccharides as substrates except that the dilution rate of the expressed polypeptide solution was 10 and the reaction time was 2 hours. Supernatants obtained by centrifuging the reaction mixtures were analyzed on silica gel thin-layer chromatography as described above.

inhibition of pNPC-degrading activity by dithiothreitol ([1]; 5 mM pNPC, 98° C., pH 6.0): not inhibited
inhibition of pNPC-degrading activity by dithiothreitol ([1]; 5 mM pNPC, 98° C., pH 6.0, listed as dithiothreitol): Almost no inhibition
Molecule: O[C@H](CS)[C@H](O)CS (racemic) [DTT, dithiothreitol]

Molecule: O=C(O)CN(CCN(CC(=O)O)CC(=O)O)CC(=O)O [EDTA, ethylenediaminetetraacetic acid]
inhibition at 1000 µM ([1]; pH 6, read-out: inhibition of pNPC-degrading activity): ~50%
inhibition of pNPC-degrading activity ([1]; reagent at 1 mM, 5 mM pNPC, 98° C., pH 6.0): about 50%

Molecule: O=C[C@H](O)[C@@H](O)[C@H](O[C@@H]1O[C@H](CO)[C@@H](O)[C@H](O)[C@H]1O)[C@H](O)CO [cellobiose]
Ki [2]: 200 µM

B1: polypeptide of the present invention: polypeptide of SEQ ID NO:1 with thermostable cellobiohydrolase activity, expressed from open reading frame PH1171 of Pyrococcus horikoshii OT3 (protein)
chain: ENTTYQTPTGIYYEVRGDTIYMINVTSGEETPIHLFGVNWFGFETPNHVVHGLWKRNWEDMLLQIKSLGFNAIRLPFCTESVKPGTQPIGIDYSKNPDLRGLDSLQIMEKIIKKAGDLGIFVLLDYHRIGCTHIEPLWYTEDFSEEDFINTWIEVAKRFGKYWNVIGADLKNEPHSVTSPPAAYTDGTGATWGMGNPATDWNLAAERIGKAILKVAPHWLIFVEGTQFTNPKTDSSYKWGYNAWWGGNLMAVKDYPVNLPRNKLVYSPHVYGPDVYNQPYFGPAKGFPDNLPDIWYHHFGYVKLELGYSVVIGEFGGKYGHGGDPRDVIWQNKLVDWMIENKFCDFFYWSWNPDSGDTGGILQDDWTTIWEDKYNNLKRLMDSCSKSSSSTQSVIRSTTPTKSNTSKKICGPAILIILAVFSLLLRRAPR
modifications: Pyrococcus horikoshii OT3
activity relative to that in the presence of 0.5 M NaCl ([3]; 2.5 M NaCl): about 60%
activity relative to that in the presence of 0.5 M NaCl ([3]; absence of NaCl): about 80%
activity after heating in the absence of a substrate ([4]; 95° C. for 10 minutes at pH 5 to 7): not decreased
retained CMC-degrading activity after heating ([4]; 95° C. for 24 hours, pH 6.0): about 90%
remaining activity after heating ([4]; 95° C., pH 6, heating for additional 24 hours): About 80%
retained activity after heating ([4]; in the presence of a substrate at pH 6 at 95° C. for 5 hours): about 90%
retained cellobiohydrolase activity after heat treatment ([4]; treatment at 75° C. for 20 minutes): ≥ 80%
retained cellobiohydrolase activity after heat treatment ([4]; treatment at 95° C. for 10 minutes): ≥ 80%
retained cellobiohydrolase activity after heat treatment ([4]; treatment at 95° C. for 5 hours): ≥ 80%
pNPC-degrading activity versus amount of polypeptide [5]: increased depending on the concentration
specific activity (4-MUC-degrading activity) [6]: 17.0 U/mg
product from phosphoric acid-swollen cellulose (TLC) ([7]; 98° C. for 8 hours): generation of cellobiose
product from cellooligosaccharides (TLC) ([7]; cellotriose, cellotetraose, cellopentaose, 10-fold dilution, 98° C., 2 hours, pH 6.0): principal degradation product was cellobiose
